Results from the Human Domainome abundance scans (Beltran et al. 2025).

B1: Intersectin-1, residues 1156 to 1213; numbered along this chain, Q15811 (parent)
chain: AVCQVIGMYDYTAQNDDELAFNKGQIINVLNKEDPDWWKGEVNGQVGLFPSNYVKLTT
B2: SH3 and PX domain-containing protein 2B, residues 155 to 209; numbered along this chain, A1X283 (parent)
chain: EQYVVVANYQKQESSEISLSVGQVVDIIEKNESGWWFVSTAEEQGWVPATCLEGQ

Variants of: B1
Assay: abundance fitness (aPCA) (normalised: wild type 0, dead -1); higher = more abundant; growth selection in yeast, the domain comes from the species named
Conditions: Homo sapiens

Abundance fitness of substitutions, site by site:
A1: E -0.082 | D -0.322 | S 0.127 | V -0.068 | T -0.213 | R -0.1
V2: D -0.142 | P -0.222 | S -0.233 | M -0.205 | E -0.074 | K -0.06 | A -0.492 | C -0.357 | G -0.115 | N -0.223 | R -0.003 | H -0.105 | Q -0.466 | F -0.268 | L -0.375

Variants of: B2
Assay: as above
Conditions: Homo sapiens

Abundance fitness of substitutions, site by site:
V38: W -1.02 | I -0.319 | K -1.03 | A -0.07 | E -0.76 | H -1.13 | G -0.363 | N -0.895 | C -0.298 | F -0.915 | L -0.736 | R -0.963 | T -0.875 | P -1.14 | Y -0.921 | D -0.736 | Q -1.08
E42: H 0.063 | C -0.064 | W -0.118 | P -0.431 | S 0.07 | D 0.086 | I -0.387 | A -0.057 | Q 0.019 | M -0.048 | G -0.037 | K -0.057 | Y -0.163
L52: C -0.227 | F -0.083 | V -0.049 | K -0.647 | H -0.773 | W -0.775 | N -1.05 | R -0.835 | Y -1.07 | Q -1.05 | D -0.942 | P -0.826 | E -1.1 | T -1.22 | M -0.168
P48: I -0.956 | Q -0.568 | W -0.835 | D -0.252 | H -0.455 | A -0.626 | C -0.614 | F -0.998 | N -0.492 | R -0.306 | E -0.522 | V -0.79 | M -0.76 | G -1 | L -0.455 | K -0.334 | Y -1.03 | T -0.888 | S -0.544
W36: Y -0.099
W46: C -0.233 | M -0.039 | A -0.599 | E -0.91 | D -0.652 | F -0.036 | Y -0.051 | K -0.273 | I -0.299 | R -0.17 | T -0.437 | Q -0.37 | G -1.08
E53: G -0.008 | M -0.144 | T -0.018 | A -0.014 | R -0.064 | H -0.138 | Q 0.027 | C -0.14 | L -0.2 | F -0.33 | S -0.05 | Y -0.252 | I -0.289 | K -0.004 | V -0.128 | W -0.477 | D -0.073
G54: H -0.345 | F -0.143 | L 0.07 | A 0 | Q 0.121 | I 0.079 | K -0.231 | M -0.098 | R -0.019 | E 0.11 | T -0.069 | D -0.144 | N 0.025 | Y -0.042 | P -0.112 | V 0.008 | C -0.04
G45: Q -0.734 | M -0.632 | W -0.919 | V -0.7 | S -0.965 | L -0.444 | P -1.19 | E -1.21 | R -0.723 | A -0.604 | T -0.683 | D -0.964 | F -0.744 | I -0.643 | H -0.815 | N -0.95 | C -0.779 | K -0.547
S39: T -0.039 | E 0.013 | Y -0.312 | D -0.113 | M -0.018 | K -0.035 | F -0.241 | P -0.864 | N -0.022 | L -0.329 | V -0.414 | G -0.107 | A -0.08 | I -0.297 | C -0.022 | W -0.371 | R -0.009
T50: E -0.096 | P -0.134 | W 0.049 | H -0.299 | S -0.046 | Q -0.161 | G 0.001 | C -0.144 | N -0.159 | A -0.052 | R -0.023 | F -0.337 | Y -0.095 | K 0.09 | D -0.093 | L -0.125 | M -0.243
A49: M 0.003 | K -0.053 | Q -0.327 | W -0.586 | L -0.012 | R -0.146 | G -0.016 | P -0.105 | Y -0.237 | D -0.214 | C 0.045 | T -0.191 | N 0.02 | H 0.118 | E -0.273 | V -0.207 | F -0.139
T40: L -0.031 | M -0.065 | W -0.354 | N -0.137 | P -0.699 | H -0.15 | V -0.042 | D -0.234 | Y -0.151 | E -0.337 | C -0.201 | G -0.19 | S 0.015 | A -0.124 | Q 0.063 | I -0.121 | F 0.02 | K -0.035
Q44: H -0.085 | P -0.807 | V -0.225 | M -0.122 | K -0.106 | T -0.101 | S -0.136 | R 0.001 | F -0.207 | G -0.151 | Y -0.376 | I -0.208 | A -0.187 | L -0.337 | D -0.14 | E -0.143 | C -0.216
A41: T 0.015 | Q -0.133 | M -0.084 | V -0.127 | K -0.157 | S 0.034 | F -0.113 | W -0.376 | D -0.273 | N -0.244 | H -0.009 | G -0.122 | E 0.069 | L -0.041 | I 0.045
F37: E -0.237 | L 0.03 | S -0.109 | T -0.472 | K 0.066 | Y 0.061 | A -0.174 | M -0.069 | I -0.181 | C -0.127 | H -0.068 | D -0.347 | R 0.06 | Q 0.036
E43: Y -0.221 | H -0.021 | G 0.041 | N 0.017 | M -0.117 | I -0.155 | F -0.265 | P -0.856 | A -0.038 | L -0.263 | Q 0.065 | V -0.093 | S 0.033 | R -0.111 | T -0.033 | D 0.087 | K -0.167 | W -0.31
C51: A -0.12 | M -0.787 | H -0.322 | Y -0.271 | G -0.711 | V -0.107 | T -0.222 | Q -0.349 | P -0.959 | F -0.212 | R -0.343 | W -0.596 | S -0.219 | E -0.944 | K -0.245 | D -0.737 | L -0.267
Q55: V -0.44 | P 0.045 | W -0.329 | I -0.099 | E -0.341 | L -0.138 | H -0.004 | N -0.551 | G -0.229 | D -0.034 | R 0.054 | M -0.233 | Y -0.267 | T -0.07 | S -0.133
V47: W -1.11 | M -0.453 | Y -0.45 | H -0.967 | S -0.567 | K -0.929 | G -0.493 | N -1.05 | I 0.11 | R -0.72 | A -0.106 | P -0.922 | T -0.552 | F -0.229 | E -0.776 | D -1.1 | L -0.319 | C 0.001
